Experimental data from patent US20230220071A1 (Hoffmann-La Roche, published 2023).
Residue numbers refer to the chain shown, from its start.

B1: clone 299 VH 0 (rb) / VL 5 (antibody, V domains shown)
VH: QSMEESGGRLVTPGTPLTLTCTVSGFSLSSYAMSWVRQAPGKGLEWIGYIWSGGSTDYASWAKGRFTISKTSTTVDLKITSPTTEDTATYFCARRYGTSYPDYGDANGFDPWGPGTLVTVSS
VL: DIQMTQSPSSLSASVGDRVTITCRASQSISSYLSWYQQKPGKAPKLLIYRASTLASGVPSRFSGSGSGTDFTLTISSLQPEDFATYYCQQSYSSSNVDNTFGGGTKVEIK
B2: clone 299 VH 0 (rb) / VL 6 (antibody, V domains shown)
VH: B1 VH
VL: B1 VL with D1A, M4L
B3: clone 299 VH 0 (rb) / VL 7 (antibody, V domains shown)
VH: B1 VH
VL: B1 VL with D1A, M4L, S34A
B4: clone 299 VH 0 (rb) / VL 8 (antibody, V domains shown)
VH: B1 VH
VL: B1 VL with D1A, I2Y, M4L
B5: clone 299 VH 0 (rb) / VL 10 (antibody, V domains shown)
VH: B1 VH
VL: B1 VL with G66R
B6: clone 299 VH 0 (rb) / VL 12 (antibody, V domains shown)
VH: B1 VH
VL: B1 VL with S34A, G66R, S91H
B7: clone 299 VH 0 (rb) / VL 17 (antibody, V domains shown)
VH: B1 VH
VL: B1 VL with D1A, M4L, S34A, S91T
B8: clone 299 VH 9 / VL 9-NYA (antibody, V domains shown)
VH: QQLLESGGGLVQPGGSLRLSCAASGFTFSSYAMSWVRQAPGKGLEWVGYIWSGGSTDYADSVKGRFTISRDNSKNTLYLQMNSLRAEDTAVYYCAKRYGTSYPDYGDANGFDPWGQGTLVTVSS
VL: B1 VL with D1A, M4L, S34A, S91N, S93A
B9: clone 299 VH 11 / VL 9-NYA (antibody, V domains shown)
VH: B8 VH with T27S, F28L, K96R
VL: B1 VL with D1A, M4L, S34A, S91N, S93A
B10: clone 299 VH 12 / VL 9-NYA (antibody, V domains shown)
VH: QVQLQESGPGLVKPSETLSLTCTVSGFSLSSYAMSWIRQPPGKGLEWIGYIWSGGSTDYNPSLKSRVTISVDTSKNQFSLKLSSVTAADTAVYYCARRYGTSYPDYGDANGFDPWGQGTLVTVSS
VL: B1 VL with D1A, M4L, S34A, S91N, S93A
B11: clone 299 VH 13 / VL 9-NYA (antibody, V domains shown)
VH: B10 VH with F78V
VL: B1 VL with D1A, M4L, S34A, S91N, S93A
B12: clone 299 VH 18 / VL 9-NYA (antibody, V domains shown)
VH: B10 VH with E16Q, P40H, N60A
VL: B1 VL with D1A, M4L, S34A, S91N, S93A
B13: clone 299 VH 0 (rb) / VL 14 (antibody, V domains shown)
VH: B1 VH
VL: DIVMTQSPDSLAVSLGERATINCKSSQSISSYLSWYQQKPGQRPKLLIYRASTLASGVPDRFSGSGSGTDFTLTISSLQAEDVAVYYCQQSYSSSNVDNTFGGGTKVEIK
B14: clone 299 VH 0 (rb) / VL 15 (antibody, V domains shown)
VH: B1 VH
VL: B13 VL with S34I, R43P, S91A
B15: clone 299 VH 20 / VL 0 (rb) (antibody, V domains shown)
VH: QSMQESGPGLVKPSQTLSLTCTVSGFSLSSYAMSWIRQHPGKGLEWIGYIWSGGSTDYAPSLKSRVTISVDTSKNQVSLKLSSVTAADTAVYYCARRYGTSYPDYGDANGFDPWGQGTLVTVSS
VL: AYDMTQTPASVEVAVGGTVTIKCQASQSISSYLSWYQQKPGQRPKLLIYRASTLASGVSSRFKGSGSGTQFTLTISGVECADAATYYCQQCYSSSNVDNTFGGGTEVVVK
B16: clone 299 VH 15 / VL 0 (rb) (antibody, V domains shown)
VH: B15 VH with S2Q, M3L, Q15E, I36V, H39P, A59N
VL: B15 VL
B17: clone 299 VH 16 / VL 0 (rb) (antibody, V domains shown)
VH: B15 VH with S2Q, M3L, Q15E, I36V, H39P, A59N, Q116P
VL: B15 VL
B18: clone 299 VH 17 / VL 0 (rb) (antibody, V domains shown)
VH: B15 VH with S2Q, M3L, Q15E, I36V, H39P, A59N, V70K, Q116P
VL: B15 VL
B19: clone 299 VH 19 / VL 0 (rb) (antibody, V domains shown)
VH: B15 VH with V77F
VL: B15 VL
B20: clone 299 VH 21 / VL 0 (rb) (antibody, V domains shown)
VH: B15 VH with P60S, S61W, L62A
VL: B15 VL
B21: clone 299 VH 22 / VL 0 (rb) (antibody, V domains shown)
VH: B15 VH with I36V, P60S, S61W, L62A
VL: B15 VL
B22: clone 299 VH 12 / VL 0 (rb) (antibody, V domains shown)
VH: B10 VH
VL: B15 VL
B23: clone 299 VH 18 / VL 0 (rb) (antibody, V domains shown)
VH: B10 VH with E16Q, P40H, N60A
VL: B15 VL
B24: clone 299 VH 23-DANG / VL 0 (rb) (antibody, V domains shown)
VH: QSMQESGPGLVKPSQTLSLTCTVSGFSLSSYAMSWIRQHPGKGLEWIGYIWSGGSTDYASWAKSRVTISKTSTTVSLKLSSVTAADTAVYYCARRYGTSYPDYGDANGFDPWGQGTLVTVSS
VL: B15 VL
B25: clone 299 VH 11 / VL 0 (rb) (antibody, V domains shown)
VH: B8 VH with T27S, F28L, K96R
VL: B15 VL
B26: clone 299 VH 1 / VL 0 (rb) (antibody, V domains shown)
VH: B8 VH with Q1V, L4V, S6T, V11I, T27S, F28L, K96R
VL: B15 VL
B27: clone 299 VH 5 / VL 0 (rb) (antibody, V domains shown)
VH: B8 VH with Q2S, L3M, L4E, S6T, V11I, T27S, F28L, K96R, Q116P
VL: B15 VL
B28: clone 299 VH 7 / VL 0 (rb) (antibody, V domains shown)
VH: B8 VH with L4V, S6T, V11I, T27S, F28L, V47I, D60S, S61W, V62A, K96R
VL: B15 VL
B29: clone 299 VH 9 / VL 0 (rb) (antibody, V domains shown)
VH: B8 VH
VL: B15 VL
B30: clone 299 VH 15 / VL 9-NYA (antibody, V domains shown)
VH: B15 VH with S2Q, M3L, Q15E, I36V, H39P, A59N
VL: B1 VL with D1A, M4L, S34A, S91N, S93A
B31: clone 299 VH 16 / VL 9-NYA (antibody, V domains shown)
VH: B15 VH with S2Q, M3L, Q15E, I36V, H39P, A59N, Q116P
VL: B1 VL with D1A, M4L, S34A, S91N, S93A
B32: clone 299 VH 17 / VL 9-NYA (antibody, V domains shown)
VH: B15 VH with S2Q, M3L, Q15E, I36V, H39P, A59N, V70K, Q116P
VL: B1 VL with D1A, M4L, S34A, S91N, S93A
B33: clone 299 VH 19 / VL 9-NYA (antibody, V domains shown)
VH: B15 VH with V77F
VL: B1 VL with D1A, M4L, S34A, S91N, S93A
B34: clone 299 VH 20 / VL 9-NYA (antibody, V domains shown)
VH: B15 VH
VL: B1 VL with D1A, M4L, S34A, S91N, S93A
B35: clone 299 VH 21 / VL 9-NYA (antibody, V domains shown)
VH: B15 VH with P60S, S61W, L62A
VL: B1 VL with D1A, M4L, S34A, S91N, S93A
B36: clone 299 VH 22 / VL 9-NYA (antibody, V domains shown)
VH: B15 VH with I36V, P60S, S61W, L62A
VL: B1 VL with D1A, M4L, S34A, S91N, S93A

The binders below were run against T1, human transferrin receptor (BIAcore, construct not stated) (human, UniProt P02786 89-760) (assay: SPR, 25 C).
T1 construct: also called huTfR
T1 sequence (P02786 89-760): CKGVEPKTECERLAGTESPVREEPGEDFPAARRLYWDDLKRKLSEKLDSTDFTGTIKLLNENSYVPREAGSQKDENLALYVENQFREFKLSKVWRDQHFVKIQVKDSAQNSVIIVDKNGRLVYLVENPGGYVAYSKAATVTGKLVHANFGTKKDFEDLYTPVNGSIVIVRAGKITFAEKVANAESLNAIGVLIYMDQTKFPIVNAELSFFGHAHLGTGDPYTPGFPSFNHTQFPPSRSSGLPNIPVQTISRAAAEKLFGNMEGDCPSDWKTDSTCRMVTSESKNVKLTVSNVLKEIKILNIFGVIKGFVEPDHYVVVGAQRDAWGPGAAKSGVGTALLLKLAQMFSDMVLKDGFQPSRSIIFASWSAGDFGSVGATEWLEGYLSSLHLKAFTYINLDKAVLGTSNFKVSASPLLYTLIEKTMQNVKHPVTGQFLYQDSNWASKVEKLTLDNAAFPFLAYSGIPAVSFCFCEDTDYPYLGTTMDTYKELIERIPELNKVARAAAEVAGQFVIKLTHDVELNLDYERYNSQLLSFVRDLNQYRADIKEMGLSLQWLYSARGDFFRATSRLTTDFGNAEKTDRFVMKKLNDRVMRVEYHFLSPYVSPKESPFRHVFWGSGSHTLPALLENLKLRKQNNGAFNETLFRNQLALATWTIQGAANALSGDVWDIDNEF

koff [s⁻¹] | Binder
0.00194 | B1
0.0019 | B2
0.00463 | B3
0.00139 | B4
0.00188 | B5
0.00541 | B6
0.00149 | B7
0.00252 | B8
0.00242 | B9
0.00219 | B10
0.00139 | B11
0.00221 | B12
0.00178 | B13
0.00663 | B14
0.00111 | B15
0.000763 | B16
0.000653 | B17
0.000413 | B18

koff [s⁻¹] | Binder
0.001 | B19
0.000565 | B20
0.000506 | B21
0.000921 | B22
0.00109 | B23
0.000338 | B24
0.000905 | B25
0.000908 | B26
0.000772 | B27
0.000515 | B28
0.000901 | B29
0.00142 | B30
0.00136 | B31
0.000934 | B32
0.00617 | B33
0.00189 | B34
0.00113 | B35
0.00126 | B36
